Test results taken from patent publication US20120039802A1 (published 2012).

Experiments:
[1] = target: T1, cMet-Fc fusion protein (extracellular domain of the cMet receptor expressed as an Fc-fusion protein) (human, UniProt P08581 25-932); experiment: phage ELISA, cMet-Fc vs TRAIL-Fc
T1 construct: extracellular domain; also called soluble cMet-Fc-fusion protein; soluble cMet receptor; not shown: Fc part
Protocol: Protein phage ELISAs using peptide-displaying phage isolates from the various selection campaigns were performed to determine specificity of the peptides for cMet versus an unrelated Fc-fusion protein (TRAIL-Fe). Briefly, 384-well plates were coated overnight at 4 C with 0.5 μg/mL of cMet-Fc fusion protein or TRAIL-Fc fusion protein (background). The plates were blocked for 2 hours 37 C with 3% (w/v) BSA in PBS containing 0.05% (v/v) Tween-20 (PBST). The plates were washed with PBST and 100 μL of peptide-displaying phage were added to each well. The plates were incubated for 2 hours at room temperature and washed with PBST. cMet-binding peptide-displaying phage were detected using an HRP-conjugated anti-M13 antibody.

[2] = target: T1, cMet-Fc fusion protein (extracellular …); experiment: phage ELISA on cMet-Fc, competitor HGF 100 ng/mL
Protocol: (§1) These assays were conducted using the peptide-displaying phage discovered from the initial selection and screening campaigns using the first generation peptide libraries. Briefly, 96-well plates were coated overnight at 4 C with 0.5 μg/mL of cMet-Fc fusion protein or TRAIL-Fc fusion protein (background). The plates were blocked for 2 hours at 37 C with 3% BSA in PBST. […] This was followed by an addition of 30 μL of peptide-displaying phage overnight culture to each well. The plates were incubated for 2 hours at room temperature, washed with PBST and cMet-binding peptide-displaying phage was detected using an HRP-conjugated anti-M13 antibody.

[3] = target: T1, cMet-Fc fusion protein (extracellular …); experiment: phage ELISA on cMet-Fc, competitor HGF 500 ng/mL
Protocol: as §1

[4] = target: T2, human cMet expressed on 3T3 cells (human, UniProt P08581 25-1390); experiment: whole cell phage ELISA, 3T3 human cMet vs 3T3
T2 construct: whole, on cells; cells fixed with glutaraldehyde; also called cell surface-expressed human cMet; 3T3 cells that over-express human cMet
Protocol: Whole cell ELISAs were performed using 3T3 cells that over-express human cMet. […] Briefly, 96-well plates were seeded with 10⁵ cells per well. The plates were centrifuged for 5 minutes at 1600 rpm to pellet the cells. The resulting cell layer was fixed with 0.1% (v/v) glutaraldehyde for 12 minutes at 37 C. […] Peptide-displaying phage also were blocked in the above solution for 1 hour at 37 C. 100 μL of blocked phage was then added to each well and the plates were incubated for 1 hour at room temperature. The plates were washed with PBST. cMet-binding peptide-displaying phage were detected using an HRP-conjugated anti-M13 antibody.

T2 sequence (P08581 25-1390): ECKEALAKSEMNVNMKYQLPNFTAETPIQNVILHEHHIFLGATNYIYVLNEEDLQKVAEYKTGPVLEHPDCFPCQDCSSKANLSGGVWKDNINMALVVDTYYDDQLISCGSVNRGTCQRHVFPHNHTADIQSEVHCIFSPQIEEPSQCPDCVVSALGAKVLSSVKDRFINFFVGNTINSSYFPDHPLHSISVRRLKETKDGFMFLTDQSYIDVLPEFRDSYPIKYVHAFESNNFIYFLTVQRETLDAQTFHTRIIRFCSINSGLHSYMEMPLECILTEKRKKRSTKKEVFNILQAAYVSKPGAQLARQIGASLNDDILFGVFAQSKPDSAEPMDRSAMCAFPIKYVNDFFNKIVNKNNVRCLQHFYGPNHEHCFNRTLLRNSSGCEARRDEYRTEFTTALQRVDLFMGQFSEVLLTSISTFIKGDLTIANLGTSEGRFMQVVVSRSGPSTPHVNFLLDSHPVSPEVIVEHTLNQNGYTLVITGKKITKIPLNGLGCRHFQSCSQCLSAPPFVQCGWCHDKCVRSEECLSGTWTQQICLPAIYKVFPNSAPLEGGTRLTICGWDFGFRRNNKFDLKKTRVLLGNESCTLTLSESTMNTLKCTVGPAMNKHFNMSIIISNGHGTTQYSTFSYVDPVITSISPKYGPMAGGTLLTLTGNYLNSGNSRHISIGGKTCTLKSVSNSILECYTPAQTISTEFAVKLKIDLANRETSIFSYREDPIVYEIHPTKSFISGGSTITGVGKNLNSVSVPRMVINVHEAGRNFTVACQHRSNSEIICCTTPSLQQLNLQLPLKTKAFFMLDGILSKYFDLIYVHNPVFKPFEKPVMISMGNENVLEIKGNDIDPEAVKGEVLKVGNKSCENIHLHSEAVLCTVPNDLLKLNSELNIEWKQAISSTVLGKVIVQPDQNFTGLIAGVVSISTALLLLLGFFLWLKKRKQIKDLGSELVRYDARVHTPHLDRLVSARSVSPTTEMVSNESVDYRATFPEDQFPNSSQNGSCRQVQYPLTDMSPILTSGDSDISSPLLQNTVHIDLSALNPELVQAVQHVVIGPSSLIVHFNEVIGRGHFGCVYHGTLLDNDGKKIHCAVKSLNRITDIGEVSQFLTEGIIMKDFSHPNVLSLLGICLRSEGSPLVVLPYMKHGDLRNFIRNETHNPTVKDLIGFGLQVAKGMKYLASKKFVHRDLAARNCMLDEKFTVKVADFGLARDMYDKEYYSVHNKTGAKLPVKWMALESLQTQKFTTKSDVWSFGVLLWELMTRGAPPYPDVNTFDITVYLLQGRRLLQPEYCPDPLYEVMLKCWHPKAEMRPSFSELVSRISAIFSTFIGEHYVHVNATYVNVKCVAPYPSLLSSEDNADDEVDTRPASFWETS
T1 sequence (P08581 25-932): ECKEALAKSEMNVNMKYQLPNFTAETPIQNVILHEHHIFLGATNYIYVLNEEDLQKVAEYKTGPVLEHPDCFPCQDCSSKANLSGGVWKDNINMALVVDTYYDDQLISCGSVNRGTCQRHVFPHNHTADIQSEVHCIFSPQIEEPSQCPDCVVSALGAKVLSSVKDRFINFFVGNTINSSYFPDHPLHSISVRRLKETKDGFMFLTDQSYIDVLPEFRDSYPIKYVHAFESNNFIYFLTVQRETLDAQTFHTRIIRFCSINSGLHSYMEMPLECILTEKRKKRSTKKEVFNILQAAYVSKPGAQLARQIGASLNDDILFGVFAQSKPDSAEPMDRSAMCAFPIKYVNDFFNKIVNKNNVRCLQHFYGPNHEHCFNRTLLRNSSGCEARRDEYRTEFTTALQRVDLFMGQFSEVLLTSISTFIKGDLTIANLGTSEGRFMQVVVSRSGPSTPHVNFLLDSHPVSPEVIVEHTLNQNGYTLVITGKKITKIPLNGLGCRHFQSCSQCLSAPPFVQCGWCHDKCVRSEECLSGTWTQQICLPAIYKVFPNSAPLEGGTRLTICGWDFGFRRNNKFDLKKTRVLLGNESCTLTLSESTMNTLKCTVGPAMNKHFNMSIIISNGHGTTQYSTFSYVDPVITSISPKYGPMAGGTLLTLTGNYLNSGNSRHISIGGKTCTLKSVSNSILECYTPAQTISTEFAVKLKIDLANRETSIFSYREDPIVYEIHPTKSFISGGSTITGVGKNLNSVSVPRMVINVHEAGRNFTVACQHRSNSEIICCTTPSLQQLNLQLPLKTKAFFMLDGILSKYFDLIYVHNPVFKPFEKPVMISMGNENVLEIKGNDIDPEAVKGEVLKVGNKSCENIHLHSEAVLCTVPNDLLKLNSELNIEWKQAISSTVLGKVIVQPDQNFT

| Binder | Protein ELISA (fold over background) [1] | % of binding in the absence of HGF [2] | % of binding in the absence of HGF [3] | WC ELISA (fold over background) [4] |
| --- | --- | --- | --- | --- |
| GSSHLCNPEFCHFTAP [465-D09 peptide-displaying phage (SEQ ID NO: 003)] | 3.2 fold | 90% | 70% | 1.3 fold |
| AGWTWCDLSMMSCIFHGT [573-E07 peptide-displaying phage (SEQ ID NO: 025)] | 3.2 fold | 77% | 82% | 1.37 fold |
| AGVTNCNLSTMFCFLHGT [465-F08 peptide-displaying phage (SEQ ID NO: 026)] | 3.8 fold | 68% | 116% | 1.3 fold |
| AGTLSCSEEYKSCQLQGT [465-E09 peptide-displaying phage (SEQ ID NO: 027)] | 3.6 fold | 60% | 77% | 1.3 fold |
| AGTIRCNLAMMVCMFEGT [444-B08 peptide-displaying phage (SEQ ID NO: 028)] | 3.6 fold | 111% | 93% | 1.43 fold |
| AGQYLCTQAALGCPEWGT [465-E11 peptide-displaying phage (SEQ ID NO: 029)] | 4.3 fold | 33% | 124% | 1.23 fold |
| AGQMWCAEKNSKCYQWGT [465-D12 peptide-displaying phage (SEQ ID NO: 030)] | 3.2 fold | 34% | 0% | 1.27 fold |
| AGQAVCEWGPFWCQMQGT [470-A02 peptide-displaying phage (SEQ ID NO: 031)] | 3.2 fold | 78% | 62% | 1.3 fold |
| AGPYSCHSESHDCKLMGT [465-C01 peptide-displaying phage (SEQ ID NO: 032)] | 3.2 fold | 267% | 23% | 1.27 fold |
| AGPLFCFEWPSLCHWGGT [448-H02 peptide-displaying phage (SEQ ID NO: 033)] | 3.8 fold | 113% | 92% | 1.43 fold |
| AGNLPCHWNMSVCDHQGT [465-D01 peptide-displaying phage (SEQ ID NO: 034)] | 3.3 fold | 235% | 134% | 1.3 fold |
| AGMDFCEGFWFLCIGNAT [571-C11 peptide-displaying phage (SEQ ID NO: 035)] | 3.5 fold | 107% | 72% | 1.23 fold |
| GSMLMCELWWCRFLAP [569-H10 peptide-displaying phage (SEQ ID NO: 004)] | 3.4 fold | 98% | 83% | 1.27 fold |
| AGLLGCWDMPMECTGEGT [465-B11 peptide-displaying phage (SEQ ID NO: 036)] | 3.6 fold | 97% | 89% | 1.27 fold |
| AGKYMCEGFEWFCEMWGT [442-E08 peptide-displaying phage (SEQ ID NO: 037)] | 4.1 fold | 81% | 75% | 1.43 fold |
| AGKTVCQKWESVCSGMGT [465-C11 peptide-displaying phage (SEQ ID NO: 038)] | 3.1 fold | 41% | 4% | 1.3 fold |

| Binder | Protein ELISA (fold over background) [1] | % of binding in the absence of HGF [2] | % of binding in the absence of HGF [3] | WC ELISA (fold over background) [4] |
| --- | --- | --- | --- | --- |
| AGKQWCVVWEETCDQLGT [465-F10 peptide-displaying phage (SEQ ID NO: 039)] | 3.7 fold | 61% | 42% | 1.33 fold |
| AGIWFCNNEEKSCWAYGT [471-A11 peptide-displaying phage (SEQ ID NO: 040)] | 3 fold | 85% | 80% | 1.37 fold |
| AGHTICQHKALGCPANGT [465-C07 peptide-displaying phage (SEQ ID NO: 041)] | 3.1 fold | 102% | 138% | 1.27 fold |
| AGHFECPKHQYMCDMPGT [465-D04 peptide-displaying phage (SEQ ID NO: 042)] | 3.1 fold | 77% | 31% | 1.23 fold |
| AGGNWCSFYEELCEWLGT [445-E04 peptide-displaying phage (SEQ ID NO: 043)] | 4.2 fold | 127% | 102% | 1.37 fold |
| AGGHWCLELKHLCPPYGT [465-B06 peptide-displaying phage (SEQ ID NO: 044)] | 4.1 fold | 89% | 57% | 1.23 fold |
| AGFWDCGWMMQDCHMHGT [470-C02 peptide-displaying phage (SEQ ID NO: 045)] | 3.9 fold | 340% | 227% | 1.33 fold |
| GSLIFCPYGECMMYAP [470-E11 peptide-displaying phage (SEQ ID NO: 005)] | 3.5 fold | 55% | 127% | 1.33 fold |
| ADAWMCEYFQWNCGDKGT [458-B05 peptide-displaying phage (SEQ ID NO: 046)] | 4.5 fold | 201% | 247% | 1.33 fold |
| GDGFLCRWENGWCEFWDP [545-E08 peptide-displaying phage (SEQ ID NO: 047)] | 4.7 fold | 81% | 57% | 1.3 fold |
| AGSIQCKGPPWFSCAMYGT [325-H05 peptide-displaying phage (SEQ ID NO: 048)] | 15.9 fold | 41% | 32% | 1.47 fold |
| AGYYGCKGPPTFECQWMGT [330-F05 peptide-displaying phage (SEQ ID NO: 049)] | 13.8 fold | 51% | 27% | 1.33 fold |
| AGETVCYWLNGWFCVDDGT [274-B07 peptide-displaying phage (SEQ ID NO: 073)] | 7.8 fold |  | 296% | 1.1 fold |
| GSWRFCGGEYSFQVCQDVAP [545-C02 peptide-displaying phage (SEQ ID NO: 365)] |  |  | 31% |  |
| GSHHTCLDGFAGWRCTEVAP [546-E02 peptide-displaying phage (SEQ ID NO: 366)] |  | 74% |  |  |
| GSPEMCMMFPFLYPCNHHAP [548-F07 peptide-displaying phage (SEQ ID NO: 369)] |  |  | 37% |  |
